# According to patent publication US20200087662, “INHIBITION OF POLY(A) BINDING PROTEIN AND THE TREATMENT OF PAIN” (Board of Regents, The University of Texas System, published 2020):
# Biological target: PABPC1 (residues 1-383) (Homo sapiens, UniProt P11940 P11940:1-383)
# Experiment: FP; 50 mM HEPES, 5 mM EDTA, 250 mM KCl, 10 mM DTT, 0.5 mg/mL BSA, 0.05% Tween-20, yeast total RNA competitor
# Conditions: label: Cy3 or 3' biotin
# Method: Equilibrium dissociation constants were determined by florescence anisotropy measurements of either unmodified adenosine 12 nucleotide RNA or the Poly(A) SPOT-ON to recombinant human PABPC1 (residues 1-383). Binding reactions were conducted in 50 μL of buffer containing 50 mM HEPES, 5 mM EDTA, 250 mM KCl, 10 mM DTT, 0.5 mg/mL BSA, 0.05% Tween-20, 0.1 mg/mL yeast competitor total RNA (Ambion), and 0.5 nM Cy3-labeled RNA. Measurements were recorded on a Tecan Spark multimode plate reader in triplicate. Data were fit using Kalidagraph as described⁶³
# Sequence of PABPC1 (residues 1-383) (P11940 1-383, one chain of several): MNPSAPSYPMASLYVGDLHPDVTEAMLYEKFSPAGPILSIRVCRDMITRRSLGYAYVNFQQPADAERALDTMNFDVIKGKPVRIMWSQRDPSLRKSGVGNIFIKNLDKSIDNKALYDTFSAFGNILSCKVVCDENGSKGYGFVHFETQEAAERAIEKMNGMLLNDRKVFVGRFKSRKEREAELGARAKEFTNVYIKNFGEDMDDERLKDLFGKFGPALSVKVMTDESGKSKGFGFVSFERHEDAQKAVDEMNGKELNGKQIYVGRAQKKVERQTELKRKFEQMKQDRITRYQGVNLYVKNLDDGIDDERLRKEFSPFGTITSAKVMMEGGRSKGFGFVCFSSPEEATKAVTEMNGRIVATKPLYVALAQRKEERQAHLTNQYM
binder,measurement,value
"AAAAAAAAAAAA (ssRNA, 2'-OMe at all riboses; PS at the 5'-most and 3'-most linkages) [Poly(A) SPOT-ON]",Kd,301 nM
